Results published in patent US20150025225A1 (SHIONOGI, published 2015).
Positions count from the first letter of the chain named. Like-named read-outs stand apart in the source and are kept apart here. Blank lines part the entries; values can stand above or below the binder they belong to.

What was measured:
Baboon EL-C2 tag [1] = molecular target: T1, Baboon EL-C2 tag (baboon, UniProt Q9Y5X9 21-500 (human entry), limits assumed); assay: ELISA-type titration, A450 against antibody concentration; protocol not described in the text
T1 construct: used as heparin extract of transfected HEK293F cells; also called baboon EL heparin extract
T1 chain: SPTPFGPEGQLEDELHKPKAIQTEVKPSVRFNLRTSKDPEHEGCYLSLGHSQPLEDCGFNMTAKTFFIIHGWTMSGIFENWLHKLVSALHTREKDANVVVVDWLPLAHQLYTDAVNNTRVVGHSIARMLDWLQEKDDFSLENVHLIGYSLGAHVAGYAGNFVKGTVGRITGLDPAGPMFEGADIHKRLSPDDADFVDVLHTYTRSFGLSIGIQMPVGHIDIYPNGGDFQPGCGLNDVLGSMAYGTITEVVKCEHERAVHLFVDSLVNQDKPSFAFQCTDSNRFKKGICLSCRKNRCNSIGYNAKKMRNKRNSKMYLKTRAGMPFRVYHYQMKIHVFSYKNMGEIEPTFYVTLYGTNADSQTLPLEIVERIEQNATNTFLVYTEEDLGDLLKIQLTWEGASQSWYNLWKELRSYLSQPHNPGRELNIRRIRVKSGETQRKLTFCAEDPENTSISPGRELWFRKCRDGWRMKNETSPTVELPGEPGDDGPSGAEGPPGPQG

human EL-C2 tag = molecular target: T2, human EL-C2 tag (human, UniProt Q9Y5X9 21-500); assay: cell-based or functional assay
T2 sequence: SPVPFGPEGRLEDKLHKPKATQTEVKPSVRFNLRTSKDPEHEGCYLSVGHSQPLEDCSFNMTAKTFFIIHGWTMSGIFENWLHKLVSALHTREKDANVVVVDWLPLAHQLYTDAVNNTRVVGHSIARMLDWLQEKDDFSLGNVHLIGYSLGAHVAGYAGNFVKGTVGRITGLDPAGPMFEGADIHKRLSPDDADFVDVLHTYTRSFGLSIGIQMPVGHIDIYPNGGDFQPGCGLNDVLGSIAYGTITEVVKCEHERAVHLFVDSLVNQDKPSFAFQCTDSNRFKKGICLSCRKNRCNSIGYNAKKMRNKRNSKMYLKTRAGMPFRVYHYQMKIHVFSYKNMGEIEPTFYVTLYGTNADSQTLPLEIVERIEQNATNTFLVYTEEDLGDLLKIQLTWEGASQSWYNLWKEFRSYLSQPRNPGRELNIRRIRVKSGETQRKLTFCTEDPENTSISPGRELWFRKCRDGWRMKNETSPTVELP

[2] = molecular target: T3, human EL[331-459]-mouse EL-C2 tag (human/mouse chimera, UniProt Q9WVG5 21-500 (mouse entry)); assay: ELISA-type titration, A450 against antibody concentration; protocol not described in the text
T3 construct: used as heparin extract of transfected HEK293F cells; also called human-mouse chimera EL; Human-Mouse chimeric EL
T3 chain: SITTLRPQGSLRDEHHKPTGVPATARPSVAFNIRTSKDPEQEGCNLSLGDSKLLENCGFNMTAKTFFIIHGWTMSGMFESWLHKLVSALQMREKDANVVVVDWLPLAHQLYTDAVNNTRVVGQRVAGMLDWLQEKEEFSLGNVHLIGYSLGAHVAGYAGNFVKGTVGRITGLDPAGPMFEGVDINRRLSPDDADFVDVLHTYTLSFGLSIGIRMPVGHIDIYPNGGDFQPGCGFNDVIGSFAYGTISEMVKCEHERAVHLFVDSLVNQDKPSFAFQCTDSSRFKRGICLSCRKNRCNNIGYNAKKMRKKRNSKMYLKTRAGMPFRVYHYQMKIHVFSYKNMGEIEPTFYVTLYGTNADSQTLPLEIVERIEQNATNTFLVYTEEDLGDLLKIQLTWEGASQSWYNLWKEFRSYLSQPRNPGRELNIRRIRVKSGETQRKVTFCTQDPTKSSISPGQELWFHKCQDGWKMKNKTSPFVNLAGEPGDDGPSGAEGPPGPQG

Baboon EL-C2 tag [3] = molecular target: T1, Baboon EL-C2 tag; assay: as above
mouse EL-C2 tag = molecular target: T4, mouse EL-C2 tag (mouse, UniProt Q9WVG5 21-500); assay: as above
T4 construct: used as heparin extract of transfected HEK293F cells
T4 sequence: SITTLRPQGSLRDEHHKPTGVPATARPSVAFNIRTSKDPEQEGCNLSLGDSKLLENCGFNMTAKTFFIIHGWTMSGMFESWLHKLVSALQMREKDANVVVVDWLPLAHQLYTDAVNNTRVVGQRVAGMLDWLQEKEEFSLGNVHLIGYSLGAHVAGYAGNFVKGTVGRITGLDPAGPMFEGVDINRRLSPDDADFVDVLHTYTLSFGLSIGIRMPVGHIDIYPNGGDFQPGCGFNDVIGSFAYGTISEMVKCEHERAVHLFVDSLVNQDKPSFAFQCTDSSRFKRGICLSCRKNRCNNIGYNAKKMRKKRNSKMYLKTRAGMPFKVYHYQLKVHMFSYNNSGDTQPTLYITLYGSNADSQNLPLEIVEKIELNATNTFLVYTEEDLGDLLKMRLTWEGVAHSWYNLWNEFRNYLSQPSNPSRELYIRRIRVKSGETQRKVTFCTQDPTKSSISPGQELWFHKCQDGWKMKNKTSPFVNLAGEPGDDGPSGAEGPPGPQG

[4] = molecular target: T5, cynomolgus monkey EL-C2 tag (cynomolgus monkey, UniProt Q9Y5X9 21-500 (human entry), limits assumed); assay: as above
T5 construct: used as heparin extract of transfected HEK293F cells; also called cynomolgus EL
T5 chain: T1 chain with E12A, E141G

EC50 (read off the curve) (Baboon EL-C2 tag [1]): ~0.01 µg/mL
B1: 47B2 antibody (antibody, IgG2a, V domains shown)
VH: QVALKESGPGILQPSQTLSLTCSFSGFSLSTSGMGVGWIRQPSGKGLEWLAHIWWHGNKYYSTGLKSRLTISKDTSNNQVFLKIASVDTADTATYYCARISAGYPLDYWGQGTSVTVSS
VL: DIQMTQSPSSLSASLGGKVTITCKASQDINKYIVWYQHKPGKGPRLLIHYTSTLQPGFPSRFSGSGSGRDYSLSITNLEPEDIATYYCLQYDNLLWTFGGGTKLEIK

IC50 of EL enzyme activity (NEFA release from HDL) (human EL-C2 tag): 47 nM
EC50 (read off the curve) [2]: ~0.04 µg/mL
EC50 (read off the curve) (Baboon EL-C2 tag [3]): ~0.02 µg/mL
binding result (mouse EL-C2 tag): no binding
EC50 (read off the curve) [4]: ~0.007 µg/mL
B2: 12B10 antibody (antibody, IgG2a, V domains shown)
VH: QVTLKESGPGILKPSQTLSLTCSFSGFSLSTSGMGVGWIRQPSGKGLEWLAHIWWNDEKYYNPSLKSQLTISKDTSRNQVFLKITSVDTADTATYYCARSYDGSPFPSWGQGTLVTVSA
VL: DIQMTQSPSSLSASLGGKVTITCKASQDINKYIAWFQHKPGKGPRLLMAYPFTLQPGIPSRFSGNGSGRDYSFSISNLEPEDIATYYCLQYDNLLWTFGGGTRLEIK
